Laboratory results from IntAct's records for PubMed 31515488.

B1: Syntenin-2 (Homo sapiens), Q9H190 (parent)
chain: MSSLYPSLEDLKVDQAIQAQVRASPKMPALPVQATAISPPPVLYPNLAELENYMGLSLSSQEVQESLLQIPEGDSTAVSGPGPGQMVAPVTGYSLGVRRAEIKPGVREIHLCKDERGKTGLRLRKVDQGLFVQLVQANTPASLVGLRFGDQLLQIDGRDCAGWSSHKAHQVVKKASGDKIVVVVRDRPFQRTVTMHKDSMGHVGFVIKKGKIVSLVKGSSAARNGLLTNHYVCEVDGQNVIGLKDKKIMEILATAGNVVTLTIIPSVIYEHMVKKLPPVLLHHTMDHSIPDA
partner: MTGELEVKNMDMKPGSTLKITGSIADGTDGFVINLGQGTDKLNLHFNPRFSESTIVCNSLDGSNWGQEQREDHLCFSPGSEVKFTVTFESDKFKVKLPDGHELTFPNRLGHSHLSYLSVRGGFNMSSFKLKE
B2: Tuftelin-interacting protein 11 (Homo sapiens), Q9UBB9 (parent)
chain: MSLSHLYRDGEGRIDDDDDERENFEITDWDLQNEFNPNRQRHWQTKEEATYGVWAERDSDDERPSFGGKRARDYSAPVNFISAGLKKGAAEEAELEDSDDEEKPVKQDDFPKDFGPRKLKTGGNFKPSQKGFAGGTKSFMDFGSWERHTKGIGQKLLQKMGYVPGRGLGKNAQGIINPIEAKQRKGKGAVGAYGSERTTQSMQDFPVVDSEEEAEEEFQKELSQWRKDPSGSKKKPKYSYKTVEELKAKGRISKKLTAPQKELSQVKVIDMTGREQKVYYSYSQISHKHNVPDDGLPLQSQQLPQSGKEAKAPGFALPELEHNLQLLIDLTEQEIIQNDRQLQYERDMVVNLFHELEKMTEVLDHEERVISNLSKVLEMVEECERRMQPDCSNPLTLDECARIFETLQDKYYEEYRMSDRVDLAVAIVYPLMKEYFKEWDPLKDCTYGTEIISKWKSLLENDQLLSHGGQDLSADAFHRLIWEVWMPFVRNIVTQWQPRNCDPMVDFLDSWVHIIPVWILDNILDQLIFPKLQKEVENWNPLTDTVPIHSWIHPWLPLMQARLEPLYSPIRSKLSSALQKWHPSDSSAKLILQPWKDVFTPGSWEAFMVKNIVPKLGMCLGELVINPHQQHMDAFYWVIDWEGMISVSSLVGLLEKHFFPKWLQVLCSWLSNSPNYEEITKWYLGWKSMFSDQVLAHPSVKDKFNEALDIMNRAVSSNVGAYMQPGARENIAYLTHTERRKDFQYEAMQERREAENMAQRGIGVAASSVPMNFKDLIETKAEEHNIVFMPVIGKRHEGKQLYTFGRIVIYIDRGVVFVQGEKTWVPTSLQSLIDMAK
partner: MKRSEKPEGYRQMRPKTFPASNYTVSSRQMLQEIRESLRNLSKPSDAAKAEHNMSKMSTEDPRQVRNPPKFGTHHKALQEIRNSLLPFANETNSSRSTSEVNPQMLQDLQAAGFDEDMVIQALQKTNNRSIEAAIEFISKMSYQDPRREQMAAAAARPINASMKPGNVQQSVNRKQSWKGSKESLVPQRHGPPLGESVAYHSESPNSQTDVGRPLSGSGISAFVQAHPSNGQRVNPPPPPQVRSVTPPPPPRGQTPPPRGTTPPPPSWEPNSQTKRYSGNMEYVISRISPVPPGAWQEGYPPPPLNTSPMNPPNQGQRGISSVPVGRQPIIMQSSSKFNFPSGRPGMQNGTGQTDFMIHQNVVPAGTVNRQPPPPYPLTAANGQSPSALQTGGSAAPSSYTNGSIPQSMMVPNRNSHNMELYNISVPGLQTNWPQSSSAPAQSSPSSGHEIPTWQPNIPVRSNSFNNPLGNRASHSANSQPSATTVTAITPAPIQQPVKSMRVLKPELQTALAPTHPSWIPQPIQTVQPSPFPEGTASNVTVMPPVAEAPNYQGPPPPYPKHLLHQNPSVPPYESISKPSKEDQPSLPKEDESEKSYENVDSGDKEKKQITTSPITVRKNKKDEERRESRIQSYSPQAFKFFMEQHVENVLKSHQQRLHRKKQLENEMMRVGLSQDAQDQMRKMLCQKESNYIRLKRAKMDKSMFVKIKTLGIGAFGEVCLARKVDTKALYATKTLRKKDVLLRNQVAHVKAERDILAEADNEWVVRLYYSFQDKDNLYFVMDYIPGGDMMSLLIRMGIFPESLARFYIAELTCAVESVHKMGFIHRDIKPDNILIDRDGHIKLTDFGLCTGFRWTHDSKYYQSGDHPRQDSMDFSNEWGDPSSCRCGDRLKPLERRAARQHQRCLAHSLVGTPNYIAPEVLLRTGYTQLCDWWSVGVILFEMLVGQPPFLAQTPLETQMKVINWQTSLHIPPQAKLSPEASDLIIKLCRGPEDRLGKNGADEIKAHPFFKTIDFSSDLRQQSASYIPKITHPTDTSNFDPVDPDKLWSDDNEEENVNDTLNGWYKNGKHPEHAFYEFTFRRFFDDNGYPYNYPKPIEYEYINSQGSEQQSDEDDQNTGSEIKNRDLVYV
B3: Antiviral innate immune response effector IFIT1 (Homo sapiens), P09914 (parent)
chain: MSTNGDDHQVKDSLEQLRCHFTWELSIDDDEMPDLENRVLDQIEFLDTKYSVGIHNLLAYVKHLKGQNEEALKSLKEAENLMQEEHDNQANVRSLVTWGNFAWMYYHMGRLAEAQTYLDKVENICKKLSNPFRYRMECPEIDCEEGWALLKCGGKNYERAKACFEKVLEVDPENPESSAGYAISAYRLDGFKLATKNHKPFSLLPLRQAVRLNPDNGYIKVLLALKLQDEGQEAEGEKYIEEALANMSSQTYVFRYAAKFYRRKGSVDKALELLKKALQETPTSVLLHHQIGLCYKAQMIQIKEATKGQPRGQNREKLDKMIRSAIFHFESAVEKKPTFEVAHLDLARMYIEAGNHRKAEENFQKLLCMKPVVEETMQDIHFHYGRFQEFQKKSDVNAIIHYLKAIKIEQASLTRDKSINSLKKLVLRKLRRKALDLESLSLLGFVYKLEGNMNEALEYYERALRLAADFENSVRQGP
partner: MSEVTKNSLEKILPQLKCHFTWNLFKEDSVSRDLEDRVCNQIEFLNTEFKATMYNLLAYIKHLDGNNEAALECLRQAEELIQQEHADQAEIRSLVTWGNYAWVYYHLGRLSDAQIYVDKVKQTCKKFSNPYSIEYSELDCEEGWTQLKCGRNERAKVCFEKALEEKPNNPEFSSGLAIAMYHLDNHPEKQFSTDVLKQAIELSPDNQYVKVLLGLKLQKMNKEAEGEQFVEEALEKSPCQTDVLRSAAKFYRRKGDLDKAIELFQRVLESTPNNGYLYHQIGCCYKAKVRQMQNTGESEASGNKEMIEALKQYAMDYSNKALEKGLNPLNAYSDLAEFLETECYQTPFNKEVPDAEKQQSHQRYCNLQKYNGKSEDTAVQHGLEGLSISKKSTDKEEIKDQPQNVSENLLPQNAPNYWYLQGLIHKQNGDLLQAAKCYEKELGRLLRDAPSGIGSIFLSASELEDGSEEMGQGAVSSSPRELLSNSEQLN
B4: Complex I assembly factor TIMMDC1, mitochondrial (Homo sapiens), Q9NPL8 (parent)
chain: MEVPPPAPRSFLCRALCLFPRVFAAEAVTADSEVLEERQKRLPYVPEPYYPESGWDRLRELFGKDEQQRISKDLANICKTAATAGIIGWVYGGIPAFIHAKQQYIEQSQAEIYHNRFDAVQSAHRAATRGFIRYGWRWGWRTAVFVTIFNTVNTSLNVYRNKDALSHFVIAGAVTGSLFRINVGLRGLVAGGIIGALLGTPVGGLLMAFQKYSGETVQERKQKDRKALHELKLEEWKGRLQVTEHLPEKIESSLQEDEPENDAKKIEALLNLPRNPSVIDKQDKD
partner: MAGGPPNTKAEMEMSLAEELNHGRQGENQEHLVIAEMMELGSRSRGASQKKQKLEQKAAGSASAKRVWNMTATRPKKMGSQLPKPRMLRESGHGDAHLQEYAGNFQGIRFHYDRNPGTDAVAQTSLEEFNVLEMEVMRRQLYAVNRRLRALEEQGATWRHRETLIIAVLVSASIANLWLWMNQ

Variants of: B1
Settings: with leg2_human LGALS2, P05162

Variant | effect of a mutation on the interaction
R223C | disrupting interaction strength

Variants of: B2
Settings: with lats1_human LATS1, O95835

Variant | effect of a mutation on the interaction
S688L | with no effect
R8Q | with no effect

Variants of: B3
Settings: with ifit3_human IFIT3, O14879

Variant | effect of a mutation on the interaction
M453T | with no effect
A162T | with no effect

Variants of: B4
Settings: with fate1_human FATE1, Q969F0

Variant | effect of a mutation on the interaction
P247S | with no effect
